Measurements: patent US20130122008A1, “Anti-IL 1- ß Antibody Combination Therapy” (NOVARTIS AG, priority 2009, published 2013)
Entries after “also recorded” stand apart in the source; their conditions may differ.

Experiments:
Assay type in all cases: in vivo, human
[1] = tested on: patients with type 2 diabetes mellitus (T2DM); assay: Hemoglobin A1c in clinical dose escalation study of ACZ885 i.v. in T2DM patients on metformin
Procedure: The hemoglobin A1c assay is performed at Covance Central Laboratory Services (CLS) on the FDA-approved Bio-Rad Variant™ analyzer. This analyzer utilizes the principles of ion-exchange high performance liquid chromatography (HPLC) and microcomputer technology. Detection is performed at two wavelengths, 415 nm and 690 nm, to insure a stable baseline. A chromatogram of the changes in the absorbance is plotted versus the retention time. Each chromatogram printout is accompanied by a report identifying each peak detected, plus the relative percent and retention times of each peak. The method has an inter-assay precision of 1.7-2.1% CV, and an intra-assay precision of 0.9-1.1% (determined by assaying 15 replicate assays of a sample then evaluating the coefficient of variation). A multi center, randomized, double blind, placebo-controlled, dose escalation study of the safety, tolerability, pharmacokinetics and pharmacodynamics of ACZ885 administered intravenously to patients with type 2 diabetes mellitus. The aim of the study is to compare the pharmacokinetic and pharmacodynamic effects of five doses (i.v. administration) of ACZ885 with placebo in patients with type 2 diabetes mellitus (T2DM). […] OGTT was administered at Baseline, 4 and 12 wk post-dose. […]

[2] = tested on: patients with type 2 diabetes mellitus (T2DM); assay: High sensitive C-reactive protein (hsCRP) in clinical study of ACZ885 in T2DM patients on metformin; details: single i.v. dose 0.03, 0.1, 0.3, 1.5 mg/kg, Week 4, on stable metformin
Procedure: CRP is one of the “acute phase” proteins, the serum or protein levels of which rise during general, nonspecific response to infectious and non-infectious inflammatory processes such as rheumatoid arthritis, cardiovascular disease and peripheral vascular disease. CRP is synthesized in the liver and is present in trace amounts in serum or plasma. The C-Reactive Protein HS assay is performed at Covance Central Laboratory Services by immunonephelometry using the Siemens BNII Nephelometer. Polystyrene particles coated with monoclonal antibodies to CRP are agglutinated when mixed with samples containing CRP. The intensity of the scattered light in the nephelometer depends on the CRP content of the sample and therefore the CRP concentration can be determined versus dilutions of a standard of a known concentration The method has an inter-assay precision of 2.1-5.7% CV, and an intra-assay precision of 2.3-4.4% (determined by assaying 10 replicate assays of a sample then evaluating the coefficient of variation). CRP accuracy is evaluated by comparison with College of American Pathologists (CAP) Cardiac Risk Survey. A multi center, randomized, double blind, placebo-controlled, dose escalation study of the safety, tolerability, pharmacokinetics and pharmacodynamics of ACZ885 administered intravenously to patients with type 2 diabetes mellitus. […]

[3] = tested on: patients with type 2 diabetes mellitus (T2DM); assay: Proinsulin in clinical study of ACZ885 in T2DM patients on metformin; details: Week 4 post-dose, versus placebo
Procedure: A multi center, randomized, double blind, placebo-controlled, dose escalation study of the safety, tolerability, pharmacokinetics and pharmacodynamics of ACZ885 administered intravenously to patients with type 2 diabetes mellitus. The aim of the study is to compare the pharmacokinetic and pharmacodynamic effects of five doses (i.v. administration) of ACZ885 with placebo in patients with type 2 diabetes mellitus (T2DM). […] OGTT was administered at Baseline, 4 and 12 wk post-dose. The subsequent cohorts were included in the evaluation of pharmacodynamic, pharmacokinetis, pharmacogenomics and pharmacogenetics. • Cohort 2 (n=90; 1:1=ACZ885:Plb): received a single dose of ACZ885 (10 mg/kg) or placebo. • Cohort 3 (n=96) received a single dose of ACZ885 0.1, 0.3, 1.5 mg/kg or placebo (1:1:1:1). • Cohort 4 (n=30; 2:1=ACZ885:P1b) received a single dose of ACZ885 (0.03 mg/kg) or placebo. The study was designed to follow the patients for 24 weeks (168 days) after the single intravenous (i.v.) administration. An analysis of covariance (ANCOVA) with treatment as the classification variable and baseline as the covariate will be used for the comparison of treatments with respect to these parameters.

B1: ACZ885: anti-IL1β antibody, also referred to as Canakinumab; variable domains shown in SEQ ID NO:1 (VH) and SEQ ID NO:2 (VL) (antibody, V domains shown)
VH: QVQLVESGGGVVQPGRSLRLSCAASGFTFSVYGMNWVRQAPGKGLEWVAIIWYDGDNQYYADSVKGRFTISRDNSKNTLYLQMNGLRAEDTAVYYCARDLRTGPFDYWGQGTLVTVSS
VL: EIVLTQSPDFQSVTPKEKVTITCRASQSIGSSLHWYQQKPDQSPKLLIKYASQSFSGVPSRFSGSGSGTDFTLTINSLEAEDAAAYYCHQSSSLPFTFGPGTKVDIK
modifications: homo sapiens
- hemoglobin A1c (HbA1c) ([1]; single i.v. dose 1.5 mg/kg, Week 4, T2DM subjects on stable metformin, versus placebo, 1.5 mg/kg): statistically significant decreased; also recorded: Significant reduction
- reduction in HbA1c ([1]; single i.v. dose 10 mg/kg, Week 4 to Week 12, p=0.032): −0.32%
- high-sensitivity C-reactive protein (hsCRP), dose response [2]: linear reduction (dose proportional); also recorded: linear decreasing trend
- proinsulin [3]: positive trend at Week 4 post-dose, albeit not statistically significant
